According to the DeepSol protein solubility set:

Assay: soluble on expression in E. coli; label from the status in PepcDB or PDB records

Sequence | soluble on expression in E. coli
AAGTAKGHNPTEFPTIYDASSAPTAANTTVGIITIGGVSQTLQDLQQFTSANGLASVNTQTIQTGSSNGDYSDDQQGQGEWDLDSQSIVGSAGGAVQQLLFYMADQSASGNTGLTQAFNQAVSDNVAKVINVSLGWCEADANADGTLQAEDRIFATAAAQGQTFSVSSGDEGVYECNNRGYPDGSTYSVSWPASSPNVIAVGGTTLYTTSAGAYSNETVWNEGLDSNGKLWATGGGYSVYESKPSWQSVVSGTPGRRLLPDISFDAAQGTGALIYNYGQLQQIGGTSLASPIFVGLWARLQSANSNSLGFPAASFYSAISSTPSLVHDVKSGNNGYGGYGYNAGTGWDYPTGWGSLDIAKLSAYIRSNGFGH | soluble
MSLQLKSEKARIILSGEPTLLIDKGKIDISALKSQRLNINDLMEELRLKNYFNVEDIEYAILETSGQISLIPKTHLTNATKEDLNLKVKQENVPITIILDGKVNTDNIKYLNKDADWLMKELKKNKIDSPKDVFLALIDSKGKFYYQKYNNEGHHHHHH | not soluble
MSLADQAIHWLFPTPVLQADLTPTADVALAMDQQLALFDREVFSHPEFSNRNNLTGDLLGKAGLDQLHRLEAFQWLNQQLAVHVDAFLRELLGPNHALEVHIQKAWPVVCARQGGTIEPHTHRNAQLSAVFYVRTEPDNPSGELEFQAADDYFSHVMAIPYRDAAVSGGVFAPQQHRLLLFPSDLRHQVTPYEGASPRYSVSYDLAITTAPGHGREMRMPHPMDWVPLCKPGPAEGHHHHHH | soluble
AEMKTDAATLAQEAGNFERISGDLKTQIDQVESTAGSLQGQWRGAAGTAAQAAVVRFQEAANKQKQELDEISTNIRQAGVQYSRADEEQQQALSSQMGF | soluble
MSHALRAVFLDHASLDLGDLDMRPLRAAFDELQLHAASQPQEVAARLHDARVAISNKVPIDAQCIAACPELELILISATGTNNIDLAAARERGIVVANCHGYGTPSVAQHTLALLLALATRLPDYQQAVRSGRWQQSSQFCLLDFPIVELEGKTLGLLGHGELGGAVARLAEAFGMRVLLGQLPGRPARADRLPLGELLPRVDALTLHCPLTEDTRGMLGSAELALMKPGAFLVNTARGGLVDEQALADALRGGHLGGAATDVLSVEPPRNGNPLLAPDIPRLIVTPHNAWGSREARQRIVGQLAENAEAWKAGR | not soluble
MSLEKQIESYYQEIAQLIIDMIPEEWAEVRFYAQEDHDGWKIFFFHYLSASSDEWTKDIDIRDVIKVPQDEFMEKYNELSFCISDFRKDYAEAFGEPWMSFQMTFYASGKFNIDFYYDKNPFDTFLTRLAWQYEHFGTIPEDSFYKETLNEYLEEKAQGKRYPFLEPLKEEEGHHHHHH | soluble
MSHLVYVSRVVAAPIERVWPHLRDFNGLSAWHPGVADSRLEEGGRDDAPGTVRFLSLNPSGYVRERLLMLDDAGRSLRYAIIETDLPMRDYVAGVDLCPVTEGGGTFAQWWADFDVVAGANRDEVARLVGEGVFAAGLQALDQYLRGRQALEHHHHHH | not soluble
MSLHLNDQWVLCAPTDNFENKKEIFFTPQGAFGTGLHETTQDILKFIVEEDFEGKSLLDLGTGSGILSIAAGVKGASKIVAVDIRDVEDEVLLNASLNELENIEVVVGNVLHEEYKLNEKFDWIFINIGGEETAMFMDFIEEHIEKTGKLLVSGLVEWSFDWVKEKVENKGFKLNKKFQTNEWCTAIFSKEGHHHHHH | soluble
MGHHHHHHSHSIKPSTNLVFAKVLEKTRHPNANHLNLVKVKANQKVYEIVCGANNFSVHNWVVLAKLNAELANGLKITPRELRGYVSNGMLCAYSEINPQATSFLTSTDLDGILVLDDNYDHYKTPNQIFNLDDVILDLSIPSNRNDLNGYFWIAKELCAYFDFEYVVDATINHRPHKEIIDVRI | not soluble
MARILAIDDEDGILYIIKSALEKEGHEVTAVSNPLTIPKEKFCHYDLILLDVMMPEIDGFTLCKEIRDFVDSPIVFLTAKTMEKDLITGLSLGGDDYITKPFGIGELRARVSAHVRREHREKQNAFFLSGLTFHLSCKEIWYDDTSIAFTKSEYGICEYLALNHGQVFSREKIYENVFGYEGESDNQVIVEHIKNIRHKLSKYGMNPIETVWGIGYKWRK | not soluble
MSLEQKILAQGALEAARRRQSEQEKALLLSQLKQLQSQMEPHFLFNTLANINALIAVEPYKAQLMLEKFTELLRGTMRLRRTNTGDLREEMQLIDAYLGIQKIRLGERLEYTLPELSELGTLGMPPMLIQPLVENAVSHGIEPKAEGGTIRVRIEVADDWFELSVEDNGMGLSDTPKGNGIALQNVRDRLSGLFGHEGLLTVAQNCSGGVTATLRIRLHHLQGLQRSFYDYSQARSPQSEGHHHHHH | soluble
MAHHHHHHMSAWASGDTLERLKLKPETAPSNRGNGRQASADATSSTSVKATSNADAEGVVQASMAATIASTNKNKNKKALEGKVSKKNAPKNTAHTADEKQPPTQEQTASSSGGAKRNEPKKGASDSRDCPVTLPSDVAELVVNAFTFIGTVQALRAGTSTDGRESMLSAAVRAPEFVPQRRDYAVQNATSGSDTQHVGELASNAYPMHHHHHHHHYQLHQQQKQPQHTPLVSTSRVQQQEQPPWAPYYNDQQHRQHHSVHHHRHQQQQQQLAYGQPDCTTGKMYHDAYSPVDYDMNLCAAPPYSRMYSGYPGMCMGANMLPNMSGYGGLALRRPLPYFPQQQNQVTAYKSTHVGQQQPWMRNDSGPSNARKGSGAGQWYPGGQAGFNDALSVWNQQRNAGNWARQAEQSGPAGAHTSSAP | not soluble
MAGDPMNNNSKNNSRNVVTMNQASQSYAAQESSKMCLFEPRVFSDTQDIADELKNRRATLVNLQRIDQVSAKRIIDFLSGTVYAIGGDIQRVGTDIFLCTPDNVEVAGSITDHIENMEQHYELEHHHHHH | not soluble
MATENPQTWALWLILSEMASDMQEDKKVAKILVLGPPKAGKTTLCTFLADFMEDGDTLKKGEDSGERERKFEFEFTSVYRPTKGVRIQEFETHEFFTEQEQNELGGTRRLEDSEIQLWDVSGDKKYEDCWPAIKENAEGVILVVNPEEHKGSDLQQWFYEFVEKENIDLSCVMVILNEQGAKKTNHEQISGFEILPKLRGVHHVAHHFGSEAMQVKMEVNSFMASVLKMDQRQMGSGVDHGLGYADEQEDDF | not soluble
MTYCLGIVTQAGLIMAADSRTNAGIDYISTYQKLFDFSLPGDRTIVICCSGNLSITQAVLSQLRRDLAGHFDINLHSLPTMYDLARYLGQKVRQLQESDRDWLKQDGIDFYCNFLLGGQIRGGPIELYLVYGQGNCIHATPETPYLQIGETKYGKPILDRTISFDTSLDMAAKCALMSLDSTMRSNLSVGPPLNLARYERDSLVAPMLVQFPAGHEYLVEMRRRWEISLKDAFMRLPDIDWSRQLMRSLSPVSESVP | not soluble
MPPKKQQEVVKVQWGRPGNNLKTGIVGMPNVGKSTFFRAITKSVLGNPANYPYATIDPEEAKVAVPDERFDWLCEAYKPKSRVPAFLTVFDIAGLTKGASTGVGLGNAFLSHVRAVDAIYQVVRAFDDAEIIHVEGDVDPIRDLSIIVDELLIKDAEFVEKHLEGLRKITSRGANTLEMKAKKEEQAIIEKVYQYLTETKQPIRKGDWSNREVEIINSLYLLTAKPVIYLVNMSERDFLRQKNKYLPKIKKWIDENSPGDTLIPMSVAFEERLTNFTEEEAIEECKKLNTKSMLPKIIVTGYNALNLINYFTCGEDEVRSWTIRKGTKAPQAAGVIHTDFEKAFVVGEIMHYQDLFDYKTENACRAAGKYLTKGKEYVMESGDIAHWKAGKR | soluble
MGSDKIHHHHHHMSQAIPSSRVGVKINEWYKMIRQFSVPDAEILKAEVEQDIQQMEEDQDLLIYYSLMCFRHQLMLDYLEPGKTYGNRPTVTELLETIETPQKKLTGLLKYYSLFFRGMYEFDQKEYVEAIGYYREAEKELPFVSDDIEKAEFHFKVAEAYYHMKQTHVSMYHILQALDIYQNHPLYSIRTIQSLFVIAGNYDDFKHYDKALPHLEAALELAMDIQNDRFIAISLLNIANSYDRSGDDQMAVEHFQKAAKVSREKVPDLLPKVLFGLSWTLCKAGQTQKAFQFIEEGLDHITARSHKFYKELFLFLQAVYKETVDERKIHDLLSYFEKKNLHAYIEACARSAAAVFESSCHFEQAAAFYRKVLKAQEDILKGRVFICLLRKKVMMCLAVTLVFGSMSFPTLTNSGGFKESTDRNTTYIDHSPYKLSDQKKALS | not soluble
SEQTEVMKPETLEDLIKTLHQIFQSDSINVEEVQNLMESYQSNPQDWMKFAKFDQYRYTRNLVDEGNGKFNLMILCWGEGHGSSIHDHTDSHCFLKLLQGQLKETLFDWPDRKLQSGMKPRGQSVLQENQCAYINDSLGLHRVENVSHTEPAVSLHLYSPPFQSCRTFDQRTGHHNTVKMTFWSKYGERTPYELSVSQENN | soluble
MADYKVKDISLAEWGRKAIELAENEMPGLMELRREYGPSQPLKGAKIAGCLHMTVQTAVLIETLKALGAELRWSSCNIFSTQDNAAAAIAKTGVPVFAWKGETDEEYEWCIAQTVKGFSGDGLPNMILDDGGDLTNLVIDRYPELVPKIFGISEETTTGVKNLYKRLSKGNLPISAINVNDSVTKSKFDNLYGCRESLVDGIKRATDVMIAGKTCCVCGYGDVGKGCAAALRAFGARVVVTEVDPINALQASMEGYQVALVEDVMADAHIFVTTTGNDDIITSDHFPHMRDDAIVCNIGHFDTEIQVGWLEANAKEHVEIKPQVDRYTMENGRHIILLAKGRLVNLGCASGHPSFVMSNSFTNQVLAQIELWSNRDNGKYPRGDKAGVFFLPKALDEKVAALHLAHVGAKLTKLTPKQAEYINCPVNGPFKPDHYRY | soluble
MGSSHHHHHHSSGLVPRGSHMGTASNGSTQQLPQTIIIGVRKGGTRALLEMLSLHPDVAAAENEVHFFDWEEHYSQGLGWYLTQMPFSSPHQLTVEKTPAYFTSPKVPERIHSMNPTIRLLLILRDPSERVLSDYTQVLYNHLQKHKPYPPIEDLLMRDGRLNLDYKALNRSLYHAHMLNWLRFFPLGHIHIVDGDRLIRDPFPEIQKVERFLKLSPQINASNFYFNKTKGFYCLRDSGKDRCLHESKGRAHPQVDPKLLDKLHEYFHEPNKKFFKLVGRTFDWH | soluble
MFRNNYDGDTVTFSPTGRLFQVEYALEAIKQGSVTVGLRSNTHAVLVALKRNADELSSYQKKIIKCDEHMGLSLAGLAPDARVLSNYLRQQCNYSSLVFNRKLAVERAGHLLCDKAQKNTQSYGGRPYGVGLLIIGYDKSGAHLLEFQPSGNVTELYGTAIGARSQGAKTYLERTLDTFIKIDGNPDELIKAGVEAISQSLRDESLTVDNLSIAIVGKDTPFTIYDGEAVAKYI | soluble
MGSDKIHHHHHHMMIHGFQSSHQDFSFGPWKLTASKTHIMKSADVEKLADELHMPSLPEMMFGDNVLRIQHGSGFGIEFNATDALRCVNNYQGMLKVACAEEWQESRTEGEHSKEVIKPYDWTYTTDYKGTLLGESLKLKVVPTTDHIDTEKLKAREQIKFFEEVLLFEDELHDHGVSSLSVKIRVMPSSFFLLLRFFLRIDGVLIRMNDTRLYHEADKTYMLREYTSRESKIANLMHVPPSLFTEPNEISQYLPIKEAVCEKLVFPERIDPNPVDSQSTPSE | not soluble
MSLDWQTLLTRERLGKPVHSNDELGRSAFHKDHDRIIFSGAFRRLGRKTQVHPVSSNDHIHTRLTHSLEVACVGRSLGMRVGEILREELPEWCDPSDLGVIVQSACLAHDIGNPPFGHSGEDAIRNWFQQAAGRGWLDEMSDAERSDFLHFEGNAQGFRVLTQLEYHQFDGGTRLTYATLGTYLKYPWTSRHAEALGYKKHKFGCYQSELPLLEQITHKLGMPQLDDERWARHPLVYLMEAADDICYGLIDLEDGLEMELLEYSEVEALLLGLVGDDLPDTYRQLGPRDSRRRKLAILRGKAIEHLTNAAARAFVDQQQALLAGQLAGDLVEHMHGPAKLCVQRAKAIAREKIFQDKRKTLHEIGAYTTLEILLNAFCGAALEQYGGHTPSFKNRRILDLLGRNAPDPQWPLYRAFLQVIDFIAGMTDSYATEMAREMTGRSSEGHHHHHH | soluble
